Data on one substance can be found in patent publication EP2594588A1.

In the assay the target is ADM (agonist of the ADM-Bioassay, human or mouse not told). Kind of assay: cell-based or functional assay.

Turning to Non specific mouse IgG (antibody), the Maximal inhibition of ADM bioactivity (ADM-Bioassay) (%) was found to be 0%.
